Source: patent US5843888

Legend:
[1] = molecular target: α chain (α96Val→Trp) with the N-terminal methionine, as expressed in E. coli before processing (human)
[2] = molecular target: β chain of human hemoglobin with the N-terminal methionine, as expressed in E. coli before processing (human)

removal of the N-terminal methionine, electrospray mass spectrometry of the purified r Hb [1]: > 98%
removal of the N-terminal methionine, electrospray mass spectrometry of the purified r Hb [2]: 90%
Substance: E. coli methionine aminopeptidase (from UniProt P0AE18) (enzyme)
